This passage reports IC50 results from patent publication WO2022102744A1 (dated 2022).

This assay concerns the target T1, SARS-CoV-2 spike protein (full S1 and S2 regions, furin recognition sequence removed, histidine tag) (SARS-CoV-2, UniProt P0DTC2 14-1273).
T1 construct: whole, on cells; also called Exo-S; spike protein positive exosome
The assay can be described thus: competition ELISA: ACE2 on plate, Exo-S with titrated antibody; competitor ACE2.

One may read the IC50 as the midpoint of a concentration-inhibition curve.

B1: anti-spike protein monoclonal antibody clone A1-1C7 (antibody, V domains shown)
VH: EVQLQQSGTELVTPGASVKLSCTASGFNIKDTYVQWVKQRPEQGLEWIGRIDPASDNTFYASKFQGKASLSSDTSSNTAYMQLSSLTSGDTAVYYCSTYFSNFYYWGQGTPLTVSS
VL: DIQMTQSPASLSASVGDTVTITCGASENIYGALNWYQRKKGKSPQLLIYGATNLADGMSSRFSGRGSGRQYFLKISSLHPDDVATYYCQNVLSVPWTFGGGTKLEIK
notes: also called MAb2B (related to clone A1-1C7)
B1 displayed an IC50 of 4.8 ng/mL.
